Consider six substances from article PMC3893233.

Usually Kd stands for the constant that tells how readily two partners part at equilibrium.

Common to all, as to assay: SPR
(In general: In SPR one partner is held on a chip, and binding of the other changes the refractive index at the surface.)

One experiment concerns the target hemi-YWA variant.
Experiment [1] concerns the target homo-DLE variant (of Table 1, compared with control mAb1).
The target of experiment [2] is homo-DLE variant (of Table 2, prepared by control mAb2).
Experiment [3] addresses homo-L235V/F243L/R292P/Y300L/P396L (VLPYLL) variant.
Another experiment addresses afucosyl mAb.

As for “human FcγRIIIa^F158, extracellular region (from UniProt P08637 17-208) (receptor)”, the dissociation constant (Kd) is 280 nM with hemi-YWA variant and 5.5 nM in experiment [1].
With “human FcγRIIIa^V158, extracellular region (receptor)”, the results for the Fold KD = KD (control mAb2)/KD (Fc variant) in experiment [2] and in experiment [3] were 126 fold and 33 fold, respectively. In the experiment with afucosyl mAb, this substance gave a Fold KD = KD (IgG1)/KD (Fc variant) of 45 fold.
In turn, “human FcγRIIa^H131, extracellular region (from UniProt P12318 34-217) (receptor)” had a Fold KD = KD (control mAb2)/KD (Fc variant) in experiment [2] of 1.4 fold. The substance also showed a Fold KD = KD (IgG1)/KD (Fc variant) in the experiment with afucosyl mAb of 0.85 fold.
“human FcγRIIa^R131, extracellular region (receptor)” gave a Fold KD = KD (control mAb2)/KD (Fc variant) in experiment [2] of 2.9 fold. In the experiment with afucosyl mAb, this substance displayed a Fold KD = KD (IgG1)/KD (Fc variant) of 1.8 fold.
On to “human FcγRIIb, extracellular region (from UniProt P31994 43-217) (receptor)”, for which the values for the Fold KD = KD (control mAb2)/KD (Fc variant) in experiment [2] and in experiment [3] were 6.7 fold and 0.54 fold, respectively.
Regarding “human FcγRIa, extracellular region (from UniProt P12314 16-292) (receptor)”, in experiment [2], the Fold KD = KD (control mAb2)/KD (Fc variant) was 3.4 fold.
